Experimental data: patent US20170029530A1 (AbbVie / Abbott, published 2017)
Numbering of substitutions follows the chain as printed. “And” between values parts separate entries of the source, which are not always exact repeats. Equal values may be shown once.

T1: mDPEP3 (limits assumed)
T1 construct: also called mouse DPEP3-His; mouse DPEP3 ECD with histidine tag
T1 single chain: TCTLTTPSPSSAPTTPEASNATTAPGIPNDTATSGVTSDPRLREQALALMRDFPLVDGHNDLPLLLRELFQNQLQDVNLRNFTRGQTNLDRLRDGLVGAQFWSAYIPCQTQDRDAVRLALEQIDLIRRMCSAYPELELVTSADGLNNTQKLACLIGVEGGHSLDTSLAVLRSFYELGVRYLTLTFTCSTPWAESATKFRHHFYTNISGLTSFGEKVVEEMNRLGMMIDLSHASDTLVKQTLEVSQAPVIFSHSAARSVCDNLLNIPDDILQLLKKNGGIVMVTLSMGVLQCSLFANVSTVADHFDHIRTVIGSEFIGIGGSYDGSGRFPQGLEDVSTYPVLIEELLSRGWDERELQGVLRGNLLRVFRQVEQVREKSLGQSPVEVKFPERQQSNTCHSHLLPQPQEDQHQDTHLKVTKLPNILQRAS

T2: rat DPEP3 ECD with histidine tag (rat, UniProt Q5U2X4 36-459, limits assumed)
T2 construct: also called rDPEP3-His; ratDPEP3-His; not shown: histidine tag
T2 sequence: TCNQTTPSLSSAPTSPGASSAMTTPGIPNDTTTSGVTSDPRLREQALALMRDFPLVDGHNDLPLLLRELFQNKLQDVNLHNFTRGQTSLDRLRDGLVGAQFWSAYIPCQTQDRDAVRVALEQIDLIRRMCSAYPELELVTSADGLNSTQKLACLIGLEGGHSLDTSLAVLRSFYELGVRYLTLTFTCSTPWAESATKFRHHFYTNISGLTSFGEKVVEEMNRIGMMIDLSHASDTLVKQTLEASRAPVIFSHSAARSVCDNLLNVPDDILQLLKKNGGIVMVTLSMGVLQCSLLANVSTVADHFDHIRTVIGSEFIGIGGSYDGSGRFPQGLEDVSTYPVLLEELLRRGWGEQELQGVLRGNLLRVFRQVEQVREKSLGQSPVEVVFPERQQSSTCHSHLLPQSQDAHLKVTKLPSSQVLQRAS

T3: hDPEP3-ECD-His (human, UniProt Q9H4B8 36-463)
T3 construct: also called hDPEP3-His; monomeric hDPEP3-His antigen; not shown: histidine tag
T3 sequence: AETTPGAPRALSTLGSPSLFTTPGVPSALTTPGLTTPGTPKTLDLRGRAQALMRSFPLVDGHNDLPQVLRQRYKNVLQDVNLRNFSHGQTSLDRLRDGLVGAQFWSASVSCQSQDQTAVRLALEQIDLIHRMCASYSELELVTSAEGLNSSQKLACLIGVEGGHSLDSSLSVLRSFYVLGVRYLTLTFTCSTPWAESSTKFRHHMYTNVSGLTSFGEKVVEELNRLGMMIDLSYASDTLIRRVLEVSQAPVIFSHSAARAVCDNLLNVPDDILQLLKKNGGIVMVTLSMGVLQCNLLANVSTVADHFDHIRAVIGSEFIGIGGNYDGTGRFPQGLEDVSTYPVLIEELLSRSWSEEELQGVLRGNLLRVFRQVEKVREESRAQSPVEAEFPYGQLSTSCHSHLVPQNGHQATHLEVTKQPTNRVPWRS

B1: SC34.83 (antibody, mouse IgG2a, V domains shown)
VH: QVQLQQSGAELVKPGASVKISCKASGYAFSHSWMNWVKQRPGKGLEWIGRIYPGDGDINYNGKFKGKATLTADKSSSTAYMQLSSLTSEDSAVYFCARRGPSYNNYCFDYWGQGTTLTVSS
VL: QIVLIQSPAIMSASPGENVTMTCSASSSVSYMHWYQQKSGTSPKRWIYDTSKLASGVPARFSGSGSGTSYSLTISSMEAEDAATYYCQQWNSYPPTFGAGTKLELK
B2: SC34.63 (antibody, mouse IgG1)
light chain: DIVMSQSPSSLAVSVGEKVTMSCKSSQSLLYSKYQKNYLAWYQQKPGQSPKLLIYWASTRESGVPDRFTGSESGTDFTLTISSVKAEDLAVYYCQQYYRYPLTVGAGTKLELK
heavy chain: QVQLQQSGVELARPGASVKLSCKASGYTFTSYGIDWVKQRTGQGLEWIGETYPGRGDTYYNENFKGKATLTTDKSSSTAFLQLSSLTSEDSAVYFCARVHDYGSWFPYWGQGTLVTVSA
B3: SC34.7 (antibody, mouse IgG1, V domains shown)
VH: QVQVQQSGAELARPGASVKLSCKASGYTFTSYGINWVKQRTGQGLEWIGEIYPGSGNAYYNEKFKVKAKLTTDNSSRTAYMQLINLTSEDSAVYFCARVHDYGSWFPYWGQGTLVTVSA
VL: B2 light chain with K33R, E72G, Q95H, V104F
notes: also called SC34.07
B4: SC34.76 (antibody, mouse IgG1, V domains shown)
VH: QVQLQQSGAELARPGASVKLSCKTSEYTFTSYAINWVKQRTGQGLEWIGEVYPGSGNTYYNEKFKGKAILTTDKSSSTGYMQLSNLTSEDSAVYFCARVHDYGSWFPYWGQGTLVTVSA
VL: B2 light chain with K18R, S22N, L30F, K33R, E72G, V104F
B5: SC34.91 (antibody, mouse IgG1, V domains shown)
VH: B2 heavy chain with V9A, T30R, G33A, D35S, T51I, R55S, F80Y, L81M, Y102N
VL: B2 light chain with K33T, Y42F, E72G, V104F
B6: SC34.95 (antibody, mouse IgG1)
light chain: B2 light chain with M4L, Y31N, K33R, Y34D, Q35R, Y42C, L52V, L53M, E72G, R99S
heavy chain: QVQVKQSGAELARPGASVKLSCKASGYTFTSYAINWLKQRTGQGLEWIGEIYPGSGNTYYNESFKNKATLTTDKSSTTAYMQLNSLTSEDSAVYFCARVHDYGSWFPYWGQGTLVTVSA
B7: SC34.24 (antibody, mouse IgG1, V domains shown)
VH: B4 VH with A9P, T24A, N35T, T41A, V51I, N57D, I69T, G79A, N85S
VL: B2 light chain with S22N, K33R, E72G, V104F
B8: SC34.20 (antibody, mouse IgG1, V domains shown)
VH: QVQLQQSGSELARPGASVKLSCKASGYTFRSYAISWVRQRTGQGLEWIGEIYPESGNTDYNAQFKGKATLTTDKSSSTAYMQLSSLTSEASAVYFCARVHDYGSWFPYWGQGTLVTVSA
VL: B2 light chain with A12T, K33T, Y42F, E72G, V104F
B9: SC34.27 (antibody, mouse IgG1, V domains shown)
VH: B2 heavy chain with V9A, T30R, D35N, T51I, T58V, F80Y, L81M
VL: B2 light chain with K33R, Y34N, E72G, S82N, Q95H, V104F
B10: SC34.86 (antibody, mouse IgG1, V domains shown)
VH: B4 VH with T24A, E26G, A33T, N35T, V51I, I69T, G79A, N85S
VL: B2 light chain with I2T, M21L, K33R, I54L, E72G, Y97H, V104F
B11: SC34.67 (antibody, mouse IgG2a, V domains shown)
VH: QVQLQQSGAELARPGASVRLSCKASGYTFTSYGINWVKQRTGQGLEWIGEIYPGSGDSYYNKTFKGKAILTTDKSSSTAYMQLSSLTPEDSAVYFCARVHDYGSWFPYWGPGALVTVSA
VL: DMVMSQSPSSLAVSVGEKVALSCKSSQSLLHSRDQKNYLAWYQQKPGQSPKLLIHWASTRESGVPARFTGSGSGTDFTLTISSVKAEDLAVYYCQQSYRYPLTFGAGTKLELK
B12: SC34.4 (antibody, mouse IgG2b, V domains shown)
VH: B4 VH with T24A, E26G, A33G, V51I, T58I, S77N, G79A, N85S, G110A
VL: DIVMSQSPSSLTVSVGEKVTMSCKSSQSLLYSRNQKNYLAWYQQKPGQSPKLLIYWASTRDSGVPDRFTGTGSGTDFSLTISSVKTEDLAVYYCHQHYRYPLTFGAGTKLELK
notes: also called SC34.04

Target: T4, hDPEP2 ECD with histidine tag (human, UniProt Q9H4A9 33-463)
T4 construct: also called hDPEP2-His; not shown: histidine tag
T4 sequence (Q9H4A9 33-463): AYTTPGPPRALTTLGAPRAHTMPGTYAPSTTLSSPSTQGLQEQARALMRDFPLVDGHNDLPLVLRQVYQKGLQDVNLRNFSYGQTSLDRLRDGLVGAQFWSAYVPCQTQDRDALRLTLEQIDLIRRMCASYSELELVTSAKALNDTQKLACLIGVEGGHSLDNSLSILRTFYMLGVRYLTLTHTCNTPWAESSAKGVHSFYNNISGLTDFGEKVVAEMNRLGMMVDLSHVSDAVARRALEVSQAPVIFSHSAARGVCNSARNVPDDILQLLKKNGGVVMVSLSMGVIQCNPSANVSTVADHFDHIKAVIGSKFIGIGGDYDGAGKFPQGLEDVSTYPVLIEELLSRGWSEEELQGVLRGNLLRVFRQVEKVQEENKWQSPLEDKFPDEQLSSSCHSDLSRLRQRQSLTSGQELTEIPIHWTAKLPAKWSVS
Assay: ELISA, coated antigen
Procedure: (§1) The anti-DPEP3 antibodies were screened by ELISA for cross-reactivity with mouse, rat and cynomolgus DPEP3 and for cross reactivity to hDPEP2, the closest DPEP3 family member. ELISA was conducted as follows. Plates were coated with purified mouse, rat or cynomolgus DPEP3-His or hDPEP2-His at 0.3 μg/mL in 0.2 M carbonate-bicarbonate buffer, pH 9.4 overnight at 4° C. The protein solution was removed and the wells were blocked with 1% (w/v) BSA in PBS (PBSA), 100 μL/well for 1 hour at 37° C. Anti-DPEP3 antibody or a mouse isotype control antibody was then added at 1 μg/mL in 50 μL PBSA for 1 hour at room temperature. After washing with water, 50 μL/well HRP-labeled goat anti-mouse IgG antibody diluted 1:10,000 in PBSA was added for 30 min at room temperature. The plates were washed and developed by the addition of 40 μL/well of the TMB substrate solution (Thermo Scientific) at room temperature. An equal volume of 0.2 M H₂SO₄ was added to stop substrate development. The samples were then analyzed by spectrophotometer at OD 450. […] The cross reactivity results for exemplary DPEP3-specific antibodies can be seen in FIG. 4.

Row | binding result | Binder
1 | no binding (tested: 1 ug/mL) | B1
2 | no binding (tested: 1 ug/mL) | B2
3 | no binding (tested: 1 ug/mL) | B3
4 | no binding (tested: 1 ug/mL) | B4
5 | no binding (tested: 1 ug/mL) | B5
6 | no binding (tested: 1 ug/mL) | B6
7 | no binding (tested: 1 ug/mL) | B7
8 | no binding (tested: 1 ug/mL) | B8
9 | no binding (tested: 1 ug/mL) | B9
10 | no binding (tested: 1 ug/mL) | B10
11 | no binding (tested: 1 ug/mL) | B11
12 | no binding (tested: 1 ug/mL) | B12

Target: T1, mDPEP3
Assay: ELISA, coated antigen
Procedure: as §1

Row | binding result | Binder
13 | no binding (tested: 1 ug/mL) | B2
14 | no binding (tested: 1 ug/mL) | B3
15 | no binding (tested: 1 ug/mL) | B4
16 | no binding (tested: 1 ug/mL) | B5
17 | no binding (tested: 1 ug/mL) | B6
18 | no binding (tested: 1 ug/mL) | B7
19 | no binding (tested: 1 ug/mL) | B8
20 | no binding (tested: 1 ug/mL) | B9
21 | no binding (tested: 1 ug/mL) | B10
22 | no binding (tested: 1 ug/mL) | B11
23 | no binding (tested: 1 ug/mL) | B12

Target: T2, rat DPEP3 ECD with histidine tag
Assay: ELISA, coated antigen
Procedure: as §1

Row | binding result | Binder
24 | no binding (tested: 1 ug/mL) | B2
25 | no binding (tested: 1 ug/mL) | B3
26 | no binding (tested: 1 ug/mL) | B4
27 | no binding (tested: 1 ug/mL) | B5
28 | no binding (tested: 1 ug/mL) | B7
29 | no binding (tested: 1 ug/mL) | B8
30 | no binding (tested: 1 ug/mL) | B9
31 | no binding (tested: 1 ug/mL) | B10
32 | no binding (tested: 1 ug/mL) | B11

Target: T3, hDPEP3-ECD-His
Assay: BLI ForteBio RED, 200 nM hDPEP3-His, estimated grade
Procedure: The affinity of the antibodies for hDPEP3-His was qualitatively determined from kinetics curves generated with a ForteBio RED as follows. Anti-DPEP3 antibodies were immobilized onto anti-mouse Fc capture biosensors with a contact time of 3 mins. and a flow rate of 1000 rpm. The captured antibody loading from baseline was constant at 0.3-1 units. Following antibody capture and 30 second baseline, the biosensors were dipped into a 200 nM solution of hDPEP3-His for a 4 min. association phase followed by a 3 min. dissociation phase at a shaking rate of 1000 rpm. The biosensors were regenerated by dipping into 10 mM glycine, pH 1.7 following each cycle. The data was processed by subtracting a control mouse IgG surface response from the specific antibody response and data was truncated to the association and dissociation phase. The association and dissociation curves were used to qualitatively estimate the affinities of selected antibodies. […] A designation of “ND” means that the estimated KD was not determined.

Row | Kd | Binder
33 | > 10 nM | B1
34 | < 5 nM | B2
35 | ≥ 5 nM and ≤ 10 nM | B3
36 | < 5 nM | B4
37 | < 5 nM | B5
38 | < 5 nM | B6
39 | < 5 nM | B7
40 | ≥ 5 nM and ≤ 10 nM | B8
41 | < 5 nM | B9
42 | < 5 nM | B10
43 | < 5 nM | B11
44 | ≥ 5 nM and ≤ 10 nM | B12
